Reference: publication PMC7530383

Molecular target: actin (coated on the BLI biosensor)
Experiment: BLI; APS biosensor coated with actin; rTLP-1 in PBS pH 7.4 with 0.05% Tween 20 and 0.1% BSA; Octet RED, 25 °C; 300 s association, 120 s dissociation; n = 3

**Q.** For “Recombinant transgelin‐like protein 1 (rTLP‐1) from Mytilus coruscus (natural protein)”, which Kd is on record?
**A.** 9.45 µM
